In patent US20250346651A1 (EMORY UNIVERSITY, published 2025):
Residue numbers refer to the chain shown, from its start.

Legend:
[1] = target: T1, recombinant MBP-E6 fusion protein (Human papillomavirus type 16, UniProt P03126 1-158); assay: ELISA, plate coated with MBP-E6, purified antibody
T1 construct: The legend says only 'MBP-E6'
Experimental: ELISA plates coated with recombinant MBP-E6 fusion protein were incubated with purified human monoclonal antibodies.

[2] = target: T2, recombinant MBP-E2 fusion protein (Human papillomavirus type 16, UniProt P03120 1-365, limits assumed); assay: ELISA, plate coated with MBP-E2, purified antibody
T2 construct: The legend says only 'MBP-E2'
T2 sequence: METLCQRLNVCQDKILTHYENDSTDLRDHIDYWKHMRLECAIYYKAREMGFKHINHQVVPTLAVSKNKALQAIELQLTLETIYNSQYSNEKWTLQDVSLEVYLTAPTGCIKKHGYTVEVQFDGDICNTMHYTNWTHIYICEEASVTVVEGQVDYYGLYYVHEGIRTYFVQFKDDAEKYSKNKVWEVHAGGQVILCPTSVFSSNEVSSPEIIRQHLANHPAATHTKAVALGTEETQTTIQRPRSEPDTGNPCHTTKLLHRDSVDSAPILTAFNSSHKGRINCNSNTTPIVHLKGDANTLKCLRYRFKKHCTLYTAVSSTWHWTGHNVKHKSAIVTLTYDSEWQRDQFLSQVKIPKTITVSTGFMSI
Experimental: ELISA plates coated with recombinant MBP-E2 fusion protein were incubated with purified human monoclonal antibodies.

T1 sequence (P03126 whole entry, the tested form may be a part): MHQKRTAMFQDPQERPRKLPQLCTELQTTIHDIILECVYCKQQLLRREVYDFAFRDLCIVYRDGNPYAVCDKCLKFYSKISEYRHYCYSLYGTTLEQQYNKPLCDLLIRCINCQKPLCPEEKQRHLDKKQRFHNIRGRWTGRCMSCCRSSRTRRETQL

B1: 21-1E2 (antibody, V domains shown)
VH: DVQLAESGGGLVQPGDSLTLSCAASGFIFNNYFMSWVRQTPGKGLEWVSGISANGERSIYADSVKGRFTISRDNSKKTVSLQMNSLSAEDTAIYYCARAGCDSTSCYARVGWFGPWGQGILVTVSS
VL: DVVMTQSPDSLAVSLGERATLNCKSRESVLYTTNNRNYLAWYQQKPGQPPKLLIYWASTRESGVPDRFSGSGSGTDFSLTISSLQAEDVAVYYCQQYLTTPPTFGQGTKVEIK
- binding result [1]: binds

B2: 21-1H3 (antibody, V domains shown)
VH: QVQLVQSGAEVKKPGSSVKVSCKASGGTFANSGVAWVRQAPGQGLEWMGGLIPVFGAADYAQKFRGRLSITADESSTTAFMELDSLRSDDTAVYYCAKDHFTYNKYFSWFDPWGQGTLVIVSS
VL: QTVVTQEPSLSVSPGGTVTLTCALSSGSVSTSYYPSWYQQTPGQAPRTLIYSTNLRSSGVPDRFSGSILGNKAALTITGAQADDECDYYCVLFMGSGISMFGGGTKLTVL
- binding result [1]: binds

B3: 22-E2D4 (antibody, V domains shown)
VH: QVQLVQSGAEVKRPGSSVKVSCKASGDNFNNYAFHWVRQAPGQGLEWMGRTIPFLGLTSYSPNIQGRVSISADKSTATAFMEMSGLRSEDTAMYYCASSIRLGDFLYRASYYYSSPLDVWGQGTTVTVSS
VL: EVVLTQSPGTLSLSPGDRATLTCRAGQTISNSYLAWYQQKPGQAPRLLISGVSSRATGIPDRFSGSGSGTDFTLTISRLEPEDFAVYYCQLYGNSPSFGQGTRLEIK
- binding result [2]: binds

B4: 22-E2G5 (antibody, V domains shown)
VH: EVQVVESGGGLVQPGGSLRLSCAASGFTVNSKFMTWVRQAPGTGLECVSIIYNDGSTYYADSVKGRFTISRDNSKNTLYLQMNRLRPEDTAVYFCARRAFFGGNDDFDIWGQGTLVTVSS
VL: EIVLTQSPGTLSLSPGDRATLSCRAGQSVSSSFLAWYQQRPGQPPRLLIYGASSRATDIPDRFSGSGSGTDFTLTISRLEPEDFAVYYCHQYSSSLPTFGPGTKVEIK
- binding result [2]: binds

B5: 22-1B10 (antibody, V domains shown)
VH: QVQLVQSGSELRKPGASVTVSCKASGYTFSNHDMSWVRQAPGQGLEWMGWINSNTGNPTYAQGFTGRFVFSLDTSVSTAYLQISSLKSEDTAVYYCAKGGGICSGSRCYSGWFDSWGKGTLVAVSS
VL: QLVLTQSPSASASLGASVKLTCTLSSGHSGYAIAWHQQQPEKGPRYLMKLNSDGTHTKGDGIPDRFSGSSSGAERYLTISSLQSEDEADYYCQTWGTGIQVFGTGTKVTILG
- binding result [2]: binds

B6: 22-E2B2 (antibody, V domains shown)
VH: QVQLVQSGTEVKKPGASVRVSCKASGYTFTEYYLHWVRQAPGQGLEWMGRINPNSGNTNYAQKFNGRVTMTSDTSVNLAYLEVSGLTSDDTAIYYCTRDDSGAFVYWGQGTLVTVSS
VL: ETVLTQSPATLSLSPGERATLSCRSSQVISSYLAWFQQKPGQAPRLLIYDTSNRATGIPARFSGSGSGTDFTLTISSLEPEDFAVYYCQQRTNWPPREKITFGPGTKVDIK
- binding result [2]: binds

B7: 22-E2F7 (antibody, V domains shown)
VH: B6 VH with T28S, N54K, F64L, L78V, S101N
VL: B6 VL with T92I, K111R
- binding result [2]: binds

B8: 22-E2C5 (antibody, V domains shown)
VH: QVQLVQSGAEVKKPGASVKVSCRTSGYSFTRYYIHWVRQSPGRGLEWMGIIDPNNGGTTSAKTLLGKVSMTRDTSTSTAHLELTSLGPEDTAVYYCAILYSNGLEVWDYWGQGTLVTVSS
VL: SHELTQPPSVSVSPGQTAQITCSGDTLPDNYAYWYQQRSGQAPVLVVYEDNKRPSGIPERFSGSSSGTMATLTISGAQVEDDADYYCYSSDRSNNFFGGGTKLTVLS
- binding result [2]: binds
